Test results reported in patent publication US20230173068A1 (BIO THERA SOLUTIONS, published 2023).

How the values were obtained:
[1] = molecular target: T1, FcRn-biotin (ACRO Biosystems, Cat #FCM-H82W4) (UniProt P55899 24-297; P61769 21-119, biotin (site not stated)); test: BLI (Octet QKe), FcRn-biotin on SA biosensor, antibody as analyte
T1 construct: Bought biotinylated protein, immobilised on a streptavidin (SA) biosensor; the natural receptor is a heterodimer of FCGRT and B2M
Protocol: The cycle of regeneration and neutralization was performed 3 times.

[2] = molecular target: T2, FcγRIIIa (V158)-biotin (ACRO Biosystems, Cat #CDA-H82E9) (UniProt P08637 17-208, biotin (site not stated)); test: BLI (Octet QKe), FcγRIIIa (V158)-biotin on SA biosensor, antibody as analyte
T2 construct: Bought biotinylated protein, immobilised on an SA biosensor
T2 sequence (P08637 17-208 F176V): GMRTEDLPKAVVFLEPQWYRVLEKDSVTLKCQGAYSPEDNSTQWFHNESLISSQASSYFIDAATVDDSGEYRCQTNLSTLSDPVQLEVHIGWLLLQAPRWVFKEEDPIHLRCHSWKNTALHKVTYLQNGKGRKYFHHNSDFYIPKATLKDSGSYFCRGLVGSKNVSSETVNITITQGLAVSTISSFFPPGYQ
Protocol: Specific experimental method for binding to FcγRIIIa (V158) were as follows. FcγRIIIa (V158)-biotin (ACRO Biosystems, Cat #CDA-H82E9) was diluted to 1 μg/mL. An SA Biosensor (Fertebio, Cat #18-5019) was immobilize in FcγRIIIa (V158)-biotin dilution to a signal of approximately 0.6 nm. […] The cycle of regeneration and neutralization was performed 3 times. The data was processed and analyzed using Data Analysis 8.2, and the sample data was fitted after sample blank (PBS) signal subtraction to obtain an affinity constant (KD).

[3] = molecular target: T3, FcγRIIIa (F158)-biotin (ACRO Biosystems, Cat #CDA-H82E8) (UniProt P08637 17-208, biotin (site not stated)); test: BLI (Octet QKe), FcγRIIIa (F158)-biotin on SA biosensor, antibody as analyte
T3 construct: Bought biotinylated protein, immobilised on an SA biosensor
T3 sequence (P08637 17-208 limits assumed): as the sequence (P08637 17-208 F176V) above, with V160F counted along it
Protocol: Specific experimental method for binding to FcγRIIIa (F158) were as follows. FcγRIIIa (F158)-biotin (ACRO Biosystems, Cat #CDA-H82E8) was diluted to 1 μg/mL. An SA Biosensor (Fertebio, Cat #18-5019) was immobilize in FcγRIIIa (F158)-biotin dilution to a signal of approximately 0.6 nm.
The cycle of regeneration and neutralization was performed 3 times. The data was processed and analyzed using Data Analysis 8.2, and the sample data was fitted after sample blank (PBS) signal subtraction to obtain an affinity constant (KD).

T1 sequence (P55899 24-297 limits assumed, form in doubt, chain 1 of 2): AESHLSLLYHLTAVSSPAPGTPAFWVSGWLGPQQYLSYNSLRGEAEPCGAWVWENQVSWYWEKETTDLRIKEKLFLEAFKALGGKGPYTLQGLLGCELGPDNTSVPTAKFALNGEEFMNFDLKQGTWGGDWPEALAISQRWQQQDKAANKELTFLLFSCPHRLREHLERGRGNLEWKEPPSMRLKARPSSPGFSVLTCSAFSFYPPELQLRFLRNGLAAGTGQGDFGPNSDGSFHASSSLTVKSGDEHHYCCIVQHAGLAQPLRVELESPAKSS
T1 sequence (P61769 21-119 limits assumed, form in doubt, chain 2 of 2): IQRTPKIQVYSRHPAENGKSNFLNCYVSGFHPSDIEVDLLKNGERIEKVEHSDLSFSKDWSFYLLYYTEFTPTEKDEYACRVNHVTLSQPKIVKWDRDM

B1: Simponi (golimumab), commercially available (antibody, human IgG1, kappa)
heavy: not shown
light: not shown
notes: Bought product (Janssen Biologics B.V.); It differs from Antibody A by a higher NGNA glycosylation level; also called commercially available anti-TNF-α antibody; copies: 2 + 2
Kd [1]: 6.09 to 8.67 nM | Kd [2]: 20.1 to 42.2 nM | Kd [3]: 93 to 111 nM
